Data reported in patent US20230110188A1 (ARGENX IIP, published 2023).

T1: hMuSK delta 1 (Ig2-3 Fz) (human, UniProt O15146)
T1 construct: truncated extracellular domain, captured by anti-FLAG
T1 sequence (truncated extracellular domain, looked up): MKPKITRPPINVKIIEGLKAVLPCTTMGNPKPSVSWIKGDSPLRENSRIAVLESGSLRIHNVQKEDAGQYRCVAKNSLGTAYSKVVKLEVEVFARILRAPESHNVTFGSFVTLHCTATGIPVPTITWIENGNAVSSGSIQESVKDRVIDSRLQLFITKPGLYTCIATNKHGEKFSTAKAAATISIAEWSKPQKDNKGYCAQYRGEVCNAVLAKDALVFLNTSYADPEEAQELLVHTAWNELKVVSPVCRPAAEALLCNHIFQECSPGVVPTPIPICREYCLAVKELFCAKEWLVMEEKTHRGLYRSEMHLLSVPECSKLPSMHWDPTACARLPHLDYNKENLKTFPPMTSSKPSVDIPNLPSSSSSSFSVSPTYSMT

T2: hMuSK delta 1-2 (Ig3 Fz) (human, UniProt O15146)
T2 construct: truncated extracellular domain, captured by anti-FLAG
T2 sequence (truncated extracellular domain, looked up): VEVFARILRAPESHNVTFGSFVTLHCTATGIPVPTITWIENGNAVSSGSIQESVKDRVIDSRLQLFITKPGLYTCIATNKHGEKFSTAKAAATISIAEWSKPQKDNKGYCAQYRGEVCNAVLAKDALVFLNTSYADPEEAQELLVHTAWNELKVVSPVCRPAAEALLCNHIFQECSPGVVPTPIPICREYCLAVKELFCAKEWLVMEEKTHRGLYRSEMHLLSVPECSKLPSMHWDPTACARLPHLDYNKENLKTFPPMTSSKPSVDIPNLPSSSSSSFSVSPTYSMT

T3: Human MuSK (R&D Systems, cat. 10189-MK, histidine tag) (human, UniProt O15146 24-495)
T3 construct: Bought protein; also called human monomeric MuSK-6xhis; not shown: histidine tag (6xhis)
T3 sequence: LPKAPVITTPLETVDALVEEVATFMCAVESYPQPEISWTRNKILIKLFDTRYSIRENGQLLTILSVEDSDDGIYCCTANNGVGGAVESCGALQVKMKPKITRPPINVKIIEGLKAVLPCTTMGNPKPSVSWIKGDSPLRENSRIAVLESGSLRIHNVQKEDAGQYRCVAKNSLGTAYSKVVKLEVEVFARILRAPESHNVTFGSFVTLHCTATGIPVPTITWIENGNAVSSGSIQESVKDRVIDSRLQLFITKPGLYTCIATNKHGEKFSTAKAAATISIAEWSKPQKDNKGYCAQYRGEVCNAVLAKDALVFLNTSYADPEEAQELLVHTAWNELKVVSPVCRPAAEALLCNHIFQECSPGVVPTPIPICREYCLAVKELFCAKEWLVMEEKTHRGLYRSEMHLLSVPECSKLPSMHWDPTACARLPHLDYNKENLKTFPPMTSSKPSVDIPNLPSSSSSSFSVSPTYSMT

T4: human monomeric MuSK FLAG streptavidin (in house produced, batch 27-6-2019) (human, UniProt O15146 24-495)
T4 construct: also called full length MuSK; not shown: FLAG and streptavidin tags
T4 sequence: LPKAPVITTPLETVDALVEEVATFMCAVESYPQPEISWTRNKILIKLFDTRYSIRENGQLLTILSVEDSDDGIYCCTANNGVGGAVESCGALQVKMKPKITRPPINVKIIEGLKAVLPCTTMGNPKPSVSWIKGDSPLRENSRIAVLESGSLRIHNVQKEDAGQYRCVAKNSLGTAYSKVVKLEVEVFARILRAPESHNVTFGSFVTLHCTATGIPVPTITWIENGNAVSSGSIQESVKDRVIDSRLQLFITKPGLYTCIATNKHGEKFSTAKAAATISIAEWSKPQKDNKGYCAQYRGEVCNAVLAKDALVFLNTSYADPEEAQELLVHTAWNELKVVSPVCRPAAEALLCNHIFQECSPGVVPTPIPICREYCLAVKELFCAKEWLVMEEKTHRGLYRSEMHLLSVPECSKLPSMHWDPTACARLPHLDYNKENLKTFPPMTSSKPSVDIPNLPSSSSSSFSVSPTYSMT


Experiments:
hMuSK delta 1 (Ig2-3 Fz) = target: T1, hMuSK delta 1 (Ig2-3 Fz); test: ELISA, hMuSK delta 1 (Ig2-3 Fz) captured on anti-FLAG coat, antibody titrated, anti-human Fc HRP detection, OD450
Experimental: (§1) For binding to MuSK domains—An ELISA plate was coated with 0.5 μg/ml of anti-FLAG (M2 clone, Sigma Cat. F3165) and incubated overnight at 4° C. Next, the plate was washed with PBS and blocked with 1×PBS 1% casein for two hours at RT. After washing the plate, human monomeric MuSK FLAG streptavidin (batch 27-6-2019) and truncated MuSK variants (batch 3-9-2019) at 1 μg/ml in PBS where incubated for one hour at RT. After washing the plate, antibodies were diluted in blocking buffer and added to the plate. After a one hour incubation at RT, the plate was washed. Next, detecting antibody was added and incubated for one hour at RT (anti-human Fc HRP (1/5000) (clone 5A9, cat. No. Ab7499, ABCAM)) in blocking buffer. Lastly, the plate was washed with PBS and TMB was added and the reaction was stopped with 0.5 M H2SO4. OD 450 nm was determined by the Tecan Sunrise ELISA plate reader.
(§2) For the MuSK domain binding ELISA, binding of anti-MuSK antibodies to FLAG captured human monomeric MuSK and truncated variants was tested (FIG. 6). 3D9b, 3F6c, 3D10a, 4D3 and 3B5 bound only to full length MuSK, no binding was observed against the truncated MuSK variants. Therefore, we conclude that our antibodies bind to the Ig1 domain.

hMuSK delta 1-2 (Ig3 Fz) = target: T2, hMuSK delta 1-2 (Ig3 Fz); test: ELISA, hMuSK delta 1-2 (Ig3 Fz) captured on anti-FLAG coat, antibody titrated, anti-human Fc HRP detection, OD450
Experimental: as §1, §2

[1] = target: T3, Human MuSK (R&D Systems, cat. 10189-MK, …); test: SPR (Biacore), antibody captured on anti-hFc chip; 2.5 nM; dissociation pH 5.5
Description: (§3) In order to study pH dependent binding of our antibodies to MuSK, the Biacore was used with the same setup as described in the paragraph entitled “Binding affinity for mouse, human and rhesus monkey recombinant MuSK in Biacore”. 6. […] For the other antibodies there is no real difference observed between pH 7.4 and 5.5.

[2] = target: T4, human monomeric MuSK FLAG streptavidin …; test: epitope binning ELISA (coated anti-MuSK Fab, MuSK, IgG, anti-Fc HRP); competitor: 3F6c
Experimental: For epitope binning—An ELISA plate was coated at 1 μg/ml of the anti-MuSK Fabs and incubated overnight at 4° C. Next, the plate was wash with PBS followed by blocking with 1% casein in PBS for one hour. After washing the plate, 1 μg/ml of human monomeric MuSK (in house produced, batch 27-6-2019) was incubated for one hour at RT. The plate was washed and anti-MuSK antibodies at 0.3-10 μg/ml were added to the plate and incubated for one hour at RT. After washing the plate, detection antibody (goat anti-human Fc HRP (Jackson Immunoresearch cat. 109-035-098)) was added at 5000 fold dilution in PBS 0.1% casein. The plate was incubated for one hour at RT and washed with PBS-T. TMB was added and the reaction was stopped by adding H2504. […]
For the epitope binning ELISA, a plate was coated with anti-MuSK Fab and human monomeric MuSK was added after blocking the plate. Next the different antibodies were added and allowed to bind.

[3] = target: T3, Human MuSK (R&D Systems, cat. 10189-MK, …); test: SPR (Biacore), antibody captured on anti-hFc chip; 1.25 nM; dissociation pH 5.5
Description: as §3

| Binder | binding result (hMuSK delta 1 (Ig2-3 Fz)) | binding result (hMuSK delta 1-2 (Ig3 Fz)) | koff [1] [s⁻¹] | OD 450 nm [2] [OD] | koff [3] [s⁻¹] |
| --- | --- | --- | --- | --- | --- |
| 3D10a (antibody, human IgG1, kappa, L234A L235A, V domains shown) VH: EVQLVESGGGLVKPGGSLRLSCAASGFTFSASTMAWVRQAPGKGLEWVSSVSGDSHHIYYADSLKGRFTISRDNAKNSLYLQMNSLRAEDTAVYYCARERLLRLGVGFDSWGQGTLVTVSS VL: DIQMTQSPSSLSASVGDRVTITCRASQRISGFVNWYQQKPGKAPKLLIYAASTLQSGVPSRFSGSGSGTDFTLTISSLQPEDFATYYCQQSYSPLYTFGQGTKLEIKR | no binding (tested: log(conc) 4.2 (about 16000 ng/ml)) | no binding (tested: log(conc) 4.2 (about 16000 ng/ml)) | 9e-05 | 0.162 | 7e-05 |
| 3D9b (antibody, human IgG1, kappa, L234A L235A, V domains shown) VH: EVQLVESGGGLVKPGGSLRLSCAASGFTFSTYTMHWVRQAPGKGLEWVSSISSRSAYKYYADSVKGRFTISRDNAKNSLYLQMNSLRAEDTAVYYCARDFFQLGPPRFDSWGQGTLVTVSS VL: DIQMTQSPSSLSASVGDRVTITCRASQRISSFLNWYQQKPGKAPKLLIYGASNLQSGVPSRFSGSGSGTDFTLTISSLQPEDFATYYCQQSYSPSYTFGQGTKLEIKR | no binding (tested: log(conc) 4.2 (about 16000 ng/ml)) | no binding (tested: log(conc) 4.2 (about 16000 ng/ml)) | 4e-05 | 0.186 | 3e-05 |
| 4D3 (antibody, human IgG1, kappa, L234A L235A, V domains shown) VH: EVQLVESGGGLVKPGGSLRLSCAASGFTFSSYTMTWVRQAPGKGLEWVSSISSGGHYIYYTDSLKGRFTISRDNAKNSLYLQMNSLRAEDTAVYYCARERLLRLGVGFDFWGQGTLVTVSS VL: DIQMTQSPSSLSASVGDRVTITCRASQSISGYLNWYQQKPGKAPKLLIYAASTLQSGVPSRFSGSGSGTDFTLTISSLQPEDFATYYCQQSYSALYTFGQGTKLEIKR | no binding (tested: log(conc) 4.2 (about 16000 ng/ml)) | no binding (tested: log(conc) 4.2 (about 16000 ng/ml)) | 0.00014 | 0.1 | 0.00016 |
| 3F6c (antibody, human IgG1, kappa, L234A L235A, V domains shown) VH: EVQLVESGGGLVKPGGSLRLSCAASGFTFSSYTMDWVRQAPGKGLEWVSSIGSNGDYIYYADSVRGRFTISRDNAKNSLYLQMNSLRAEDTAVYYCARGQLAVAGTHFDYWGQGTLVTVSS VL: DIQMTQSPSSLSASVGDRVTITCRASQKVNKYVNWYQQKPGKAPKLLIYAASTLQSGVPSRFSGSGSGTDFTLTISSLQPEDFATYYCQQSYSPLSTFGQGTKLEIKR | no binding (tested: log(conc) 4.2 (about 16000 ng/ml)) | no binding (tested: log(conc) 4.2 (about 16000 ng/ml)) | 0.0002 | 0.156 | 0.00018 |
